# Data taken from article PMC10666288, “Unveiling the Catalytic Mechanism of a Processive Metalloaminopeptidase” (Biochemistry, 2023).
# B1: PaPepA (Pseudomonas aeruginosa UCBPP-PA14) (protein)
# chain: MEFLVKSVRPETLKTATLVLAVGEGRKLGASAKAVDDATGGAISAVLKRGDLAGKVGQTLLLQSLPNLKAERVLLVGAGKERELGDRQYRKLASAVLSTLKGLAGADAALALGDLAVKGRGAHAKARLLVETLADGLYVFDRYKSQKAEPLKLKKLTLLADKADSAAVEQGSKEAQAIANGMALTRDLGNLPPNVCHPTFLGEQAKGLAKEFKSLKVEVLDEKKLRELGMGSFLAVAQGSDQPPRLIILQYNGAKKDQAPHVLVGKGITFDTGGISLKPGLGMDEMKFDMCGAASVFGTFRAVLELQLPINLVGLLACAENMPSGGATRPGDIVTTMSGQTVEILNTDAEGRLVLCDALTYAERFKPQSVIDIATLTGACIVALGSNTSGLMGNNEALVRQLLKAGEFADDRAWQLPLFDEYQEQLDSPFADIANIGGPKAGTITAGCFLSRFAKKYHWAHLDIAGTAWISGGKDKGATGRPVPLLTQYLLERAK
# notes: GG stays after cleavage) (N); made in house; host or cells: E. coli BL21(DE3)
# Substrate: Cc1cc(=O)oc2cc(NC(=O)[C@H](N)CC(C)C)ccc12
# Experiment: Steady-state activity assay with Leu-AMC (fluorescence)
# Format: biochemical, Pseudomonas aeruginosa
# Conditions: other: Leu-AMC varied, 3 mM MnCl2, pH 8.0, 25.0 °C
# Procedure: A BMG Labtech POLARstar Omega plate reader was used for activity assays and kinetic studies involving amino acids conjugated to para-nitroaniline (pNA) (Sigma) or peptides as substrates. Assays were carried out at 25 °C in clear half-area 96-well plates (Greiner Bio-One). The pNA product formed upon PaPepA-mediated bond cleavage strongly absorbs at 405 nm; therefore, initial rates were measured by monitoring the increase in absorbance at 405 nm over time. For kinetic assays investigating Leu-AMC as a substrate, a SpectraMax M2E was used. Reactions were carried out using black half-area 96-well plates with clear bottoms (Greiner Bio-One). Product formation was assessed by monitoring changes in fluorescence, with the excitation wavelength set at 341 nm and emission at 441 nm. The cutoff was 420 nm. PMT gain was set to medium, with six flashes per read. PaPepA was added at a final concentration of 100 nM to start reactions. Calibration curves of pNA concentration vs absorbance and AMC vs fluorescence were constructed, and initial rate values were divided by the slope of these calibration curves to reveal the rate of product formation over time (Table S2).
# For all assays excluding pH dependence curves, buffer conditions were as follows: 100 mM HEPES, 50 mM KCl, and pH 8.0. For assays carried out under pseudo-first-order conditions, one reaction component was fixed and in excess, while the other was varied. If [metal] was varied, [Leu-pNA] was fixed at 2 mM or [Leu-AMC] was fixed at 170 μM. For assays involving variation of aa-pNA or aa-AMC, MnCl2 was added to a final concentration of 3 mM. PaPepA was added at a final concentration of 100 nM in studies containing MnCl2, and to a final concentration of 1 μM in studies containing MgCl2 as the metal cofactor. Table 1 summarizes steady-state parameters described in Scheme 1 and obtained with different substrates.
protein,measurement,value
B1,Km,16 ± 1 µM
same,kcat,0.56 ± 0.01 s⁻¹
same,kcat/Km,35400 ± 3100 M⁻¹ s⁻¹
